Test results as given in patent US20140087995A1 (published 2014).
Numbered stars: 1 amine (or outer) side, 2 acyl side, 3 side chain; on linkers, the order of the positions; unused ones are H or OH. Bridge positions count the residues as written; N and C are the ends. * marks the point of attachment. C20 diacid = O=C(O)CCCCCCCCCCCCCCCCCCC(=O)*; γGlu = O=C(O)[C@H](CCC(=O)[*:2])N[*:1]

T1: human amylin receptor (amylin 3(a) receptor: human calcitonin receptor with RAMP-3) (human, UniProt P30988 25-474; O60896 24-148)
T1 sequence (looked up) 1: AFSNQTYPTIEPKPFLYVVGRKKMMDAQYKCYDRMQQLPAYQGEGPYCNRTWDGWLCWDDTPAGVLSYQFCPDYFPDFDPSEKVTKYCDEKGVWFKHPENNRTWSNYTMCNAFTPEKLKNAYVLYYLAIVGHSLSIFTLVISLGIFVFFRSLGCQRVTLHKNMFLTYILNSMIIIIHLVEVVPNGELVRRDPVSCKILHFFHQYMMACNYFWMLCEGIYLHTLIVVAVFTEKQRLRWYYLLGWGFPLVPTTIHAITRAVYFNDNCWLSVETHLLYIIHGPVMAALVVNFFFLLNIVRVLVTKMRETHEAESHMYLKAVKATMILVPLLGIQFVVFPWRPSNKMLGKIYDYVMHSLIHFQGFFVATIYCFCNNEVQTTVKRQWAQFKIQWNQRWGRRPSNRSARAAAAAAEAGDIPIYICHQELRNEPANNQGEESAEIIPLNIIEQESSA
T1 sequence (looked up) 2: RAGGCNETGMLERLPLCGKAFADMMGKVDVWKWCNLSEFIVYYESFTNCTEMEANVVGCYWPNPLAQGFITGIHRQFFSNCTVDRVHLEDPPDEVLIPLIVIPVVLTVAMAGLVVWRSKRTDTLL

T2: human calcitonin receptor (human, UniProt P30988 25-474)
T2 sequence (looked up): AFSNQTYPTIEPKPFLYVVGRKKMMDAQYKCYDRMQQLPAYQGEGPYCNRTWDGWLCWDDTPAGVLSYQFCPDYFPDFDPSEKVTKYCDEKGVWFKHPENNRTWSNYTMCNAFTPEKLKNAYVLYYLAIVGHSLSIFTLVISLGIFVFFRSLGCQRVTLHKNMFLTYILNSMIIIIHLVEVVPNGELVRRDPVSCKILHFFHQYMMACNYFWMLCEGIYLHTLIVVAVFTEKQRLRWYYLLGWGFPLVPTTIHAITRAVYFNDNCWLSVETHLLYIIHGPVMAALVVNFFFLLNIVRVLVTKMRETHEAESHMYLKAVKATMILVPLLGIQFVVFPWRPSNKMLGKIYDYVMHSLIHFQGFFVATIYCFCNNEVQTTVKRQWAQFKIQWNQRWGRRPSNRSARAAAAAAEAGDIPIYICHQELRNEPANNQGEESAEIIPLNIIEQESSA


Experiments:
[1] = target: T1, human amylin receptor (amylin 3(a) …); test: cell-based or functional assay
[2] = target: T2, human calcitonin receptor; test: cell-based or functional assay

Binder	hAmylin-R funct. EC50 [1] [nM]	Ratio hCT/hAmylin funct. [2]	hCTR funct. EC50 [2] [nM]
{C20 diacid-γGlu}-KCNTATCATQRLANFLRHSSPNFGAIPSSTNVGPETY-NH2 (disulfide 2-7; SMILES CC[C@H](C)[C@H](NC(=O)[C@H](C)NC(=O)CNC(=O)[C@H](Cc1ccccc1)NC(=O)[C@H](CC(N)=O)NC(=O)[C@@H]1CCCN1C(=O)[C@H](CO)NC(=O)[C@H](CO)NC(=O)[C@H](Cc1c[nH]cn1)NC(=O)[C@H](CCCNC(=N)N)NC(=O)[C@H](CC(C)C)NC(=O)[C@H](Cc1ccccc1)NC(=O)[C@H](CC(N)=O)NC(=O)[C@H](C)NC(=O)[C@H](CC(C)C)NC(=O)[C@H](CCCNC(=N)N)NC(=O)[C@H](CCC(N)=O)NC(=O)[C@@H](NC(=O)[C@H](C)NC(=O)[C@@H]1CSSC[C@H](NC(=O)[C@H](CCCCN)NC(=O)CC[C@H](NC(=O)CCCCCCCCCCCCCCCCCCC(=O)O)C(=O)O)C(=O)N[C@@H](CC(N)=O)C(=O)N[C@@H]([C@@H](C)O)C(=O)N[C@@H](C)C(=O)N[C@@H]([C@@H](C)O)C(=O)N1)[C@@H](C)O)C(=O)N1CCC[C@H]1C(=O)N[C@@H](CO)C(=O)N[C@@H](CO)C(=O)N[C@H](C(=O)N[C@@H](CC(N)=O)C(=O)N[C@H](C(=O)NCC(=O)N1CCC[C@H]1C(=O)N[C@@H](CCC(=O)O)C(=O)N[C@H](C(=O)N[C@@H](Cc1ccc(O)cc1)C(N)=O)[C@@H](C)O)C(C)C)[C@@H](C)O, also called compound 29)	0.099	8.7	0.857
{C20 diacid-γGlu}-KCNTATCATQRLAEFLRHSSPNFGAIPSSTNVGSRTY-NH2 (disulfide 2-7; SMILES CC[C@H](C)[C@H](NC(=O)[C@H](C)NC(=O)CNC(=O)[C@H](Cc1ccccc1)NC(=O)[C@H](CC(N)=O)NC(=O)[C@@H]1CCCN1C(=O)[C@H](CO)NC(=O)[C@H](CO)NC(=O)[C@H](Cc1c[nH]cn1)NC(=O)[C@H](CCCNC(=N)N)NC(=O)[C@H](CC(C)C)NC(=O)[C@H](Cc1ccccc1)NC(=O)[C@H](CCC(=O)O)NC(=O)[C@H](C)NC(=O)[C@H](CC(C)C)NC(=O)[C@H](CCCNC(=N)N)NC(=O)[C@H](CCC(N)=O)NC(=O)[C@@H](NC(=O)[C@H](C)NC(=O)[C@@H]1CSSC[C@H](NC(=O)[C@H](CCCCN)NC(=O)CC[C@H](NC(=O)CCCCCCCCCCCCCCCCCCC(=O)O)C(=O)O)C(=O)N[C@@H](CC(N)=O)C(=O)N[C@@H]([C@@H](C)O)C(=O)N[C@@H](C)C(=O)N[C@@H]([C@@H](C)O)C(=O)N1)[C@@H](C)O)C(=O)N1CCC[C@H]1C(=O)N[C@@H](CO)C(=O)N[C@@H](CO)C(=O)N[C@H](C(=O)N[C@@H](CC(N)=O)C(=O)N[C@H](C(=O)NCC(=O)N[C@@H](CO)C(=O)N[C@@H](CCCNC(=N)N)C(=O)N[C@H](C(=O)N[C@@H](Cc1ccc(O)cc1)C(N)=O)[C@@H](C)O)C(C)C)[C@@H](C)O, also called compound 16)	0.363	6.1	2.21
{C20 diacid-γGlu}-KCNTATCATQRLADFLRHSSPNFGAIPSSTNVGSNTP-NH2 (disulfide 2-7; SMILES CC[C@H](C)[C@H](NC(=O)[C@H](C)NC(=O)CNC(=O)[C@H](Cc1ccccc1)NC(=O)[C@H](CC(N)=O)NC(=O)[C@@H]1CCCN1C(=O)[C@H](CO)NC(=O)[C@H](CO)NC(=O)[C@H](Cc1c[nH]cn1)NC(=O)[C@H](CCCNC(=N)N)NC(=O)[C@H](CC(C)C)NC(=O)[C@H](Cc1ccccc1)NC(=O)[C@H](CC(=O)O)NC(=O)[C@H](C)NC(=O)[C@H](CC(C)C)NC(=O)[C@H](CCCNC(=N)N)NC(=O)[C@H](CCC(N)=O)NC(=O)[C@@H](NC(=O)[C@H](C)NC(=O)[C@@H]1CSSC[C@H](NC(=O)[C@H](CCCCN)NC(=O)CC[C@H](NC(=O)CCCCCCCCCCCCCCCCCCC(=O)O)C(=O)O)C(=O)N[C@@H](CC(N)=O)C(=O)N[C@@H]([C@@H](C)O)C(=O)N[C@@H](C)C(=O)N[C@@H]([C@@H](C)O)C(=O)N1)[C@@H](C)O)C(=O)N1CCC[C@H]1C(=O)N[C@@H](CO)C(=O)N[C@@H](CO)C(=O)N[C@H](C(=O)N[C@@H](CC(N)=O)C(=O)N[C@H](C(=O)NCC(=O)N[C@@H](CO)C(=O)N[C@@H](CC(N)=O)C(=O)N[C@H](C(=O)N1CCC[C@H]1C(N)=O)[C@@H](C)O)C(C)C)[C@@H](C)O, also called compound 10)	0.072	1	0.07

The next lines start with the values.

hAmylin-R funct. EC50 [1] [nM]	Ratio hCT/hAmylin funct. [2]	hCTR funct. EC50 [2] [nM]	Binder
0.12	0.9	0.112	{C20 diacid-γGlu}-KCNTATCATQRLAEFLRHSSPNFGAIPSSTNVGSDTP-NH2 (disulfide 2-7; SMILES CC[C@H](C)[C@H](NC(=O)[C@H](C)NC(=O)CNC(=O)[C@H](Cc1ccccc1)NC(=O)[C@H](CC(N)=O)NC(=O)[C@@H]1CCCN1C(=O)[C@H](CO)NC(=O)[C@H](CO)NC(=O)[C@H](Cc1c[nH]cn1)NC(=O)[C@H](CCCNC(=N)N)NC(=O)[C@H](CC(C)C)NC(=O)[C@H](Cc1ccccc1)NC(=O)[C@H](CCC(=O)O)NC(=O)[C@H](C)NC(=O)[C@H](CC(C)C)NC(=O)[C@H](CCCNC(=N)N)NC(=O)[C@H](CCC(N)=O)NC(=O)[C@@H](NC(=O)[C@H](C)NC(=O)[C@@H]1CSSC[C@H](NC(=O)[C@H](CCCCN)NC(=O)CC[C@H](NC(=O)CCCCCCCCCCCCCCCCCCC(=O)O)C(=O)O)C(=O)N[C@@H](CC(N)=O)C(=O)N[C@@H]([C@@H](C)O)C(=O)N[C@@H](C)C(=O)N[C@@H]([C@@H](C)O)C(=O)N1)[C@@H](C)O)C(=O)N1CCC[C@H]1C(=O)N[C@@H](CO)C(=O)N[C@@H](CO)C(=O)N[C@H](C(=O)N[C@@H](CC(N)=O)C(=O)N[C@H](C(=O)NCC(=O)N[C@@H](CO)C(=O)N[C@@H](CC(=O)O)C(=O)N[C@H](C(=O)N1CCC[C@H]1C(N)=O)[C@@H](C)O)C(C)C)[C@@H](C)O, also called compound 11)
0.154	4.8	0.742	{C20 diacid-γGlu}-KCNTATCATQRLAEFLRHSSPNFGAIPSSTNVGSHTY-NH2 (disulfide 2-7; SMILES CC[C@H](C)[C@H](NC(=O)[C@H](C)NC(=O)CNC(=O)[C@H](Cc1ccccc1)NC(=O)[C@H](CC(N)=O)NC(=O)[C@@H]1CCCN1C(=O)[C@H](CO)NC(=O)[C@H](CO)NC(=O)[C@H](Cc1c[nH]cn1)NC(=O)[C@H](CCCNC(=N)N)NC(=O)[C@H](CC(C)C)NC(=O)[C@H](Cc1ccccc1)NC(=O)[C@H](CCC(=O)O)NC(=O)[C@H](C)NC(=O)[C@H](CC(C)C)NC(=O)[C@H](CCCNC(=N)N)NC(=O)[C@H](CCC(N)=O)NC(=O)[C@@H](NC(=O)[C@H](C)NC(=O)[C@@H]1CSSC[C@H](NC(=O)[C@H](CCCCN)NC(=O)CC[C@H](NC(=O)CCCCCCCCCCCCCCCCCCC(=O)O)C(=O)O)C(=O)N[C@@H](CC(N)=O)C(=O)N[C@@H]([C@@H](C)O)C(=O)N[C@@H](C)C(=O)N[C@@H]([C@@H](C)O)C(=O)N1)[C@@H](C)O)C(=O)N1CCC[C@H]1C(=O)N[C@@H](CO)C(=O)N[C@@H](CO)C(=O)N[C@H](C(=O)N[C@@H](CC(N)=O)C(=O)N[C@H](C(=O)NCC(=O)N[C@@H](CO)C(=O)N[C@@H](Cc1c[nH]cn1)C(=O)N[C@H](C(=O)N[C@@H](Cc1ccc(O)cc1)C(N)=O)[C@@H](C)O)C(C)C)[C@@H](C)O, also called compound 18)
0.268	8.8		{C20 diacid-γGlu}-KCNTATCATQRLAEFLRHSSPNFGAIPSSTNVGHNTY-NH2 (disulfide 2-7; SMILES CC[C@H](C)[C@H](NC(=O)[C@H](C)NC(=O)CNC(=O)[C@H](Cc1ccccc1)NC(=O)[C@H](CC(N)=O)NC(=O)[C@@H]1CCCN1C(=O)[C@H](CO)NC(=O)[C@H](CO)NC(=O)[C@H](Cc1c[nH]cn1)NC(=O)[C@H](CCCNC(=N)N)NC(=O)[C@H](CC(C)C)NC(=O)[C@H](Cc1ccccc1)NC(=O)[C@H](CCC(=O)O)NC(=O)[C@H](C)NC(=O)[C@H](CC(C)C)NC(=O)[C@H](CCCNC(=N)N)NC(=O)[C@H](CCC(N)=O)NC(=O)[C@@H](NC(=O)[C@H](C)NC(=O)[C@@H]1CSSC[C@H](NC(=O)[C@H](CCCCN)NC(=O)CC[C@H](NC(=O)CCCCCCCCCCCCCCCCCCC(=O)O)C(=O)O)C(=O)N[C@@H](CC(N)=O)C(=O)N[C@@H]([C@@H](C)O)C(=O)N[C@@H](C)C(=O)N[C@@H]([C@@H](C)O)C(=O)N1)[C@@H](C)O)C(=O)N1CCC[C@H]1C(=O)N[C@@H](CO)C(=O)N[C@@H](CO)C(=O)N[C@H](C(=O)N[C@@H](CC(N)=O)C(=O)N[C@H](C(=O)NCC(=O)N[C@@H](Cc1c[nH]cn1)C(=O)N[C@@H](CC(N)=O)C(=O)N[C@H](C(=O)N[C@@H](Cc1ccc(O)cc1)C(N)=O)[C@@H](C)O)C(C)C)[C@@H](C)O, also called compound 17)
